# T1: mouse Ebi3 subunit of recombinant IL-35, V5-His-tagged (mouse, UniProt O35228 19-228)
# T1 sequence: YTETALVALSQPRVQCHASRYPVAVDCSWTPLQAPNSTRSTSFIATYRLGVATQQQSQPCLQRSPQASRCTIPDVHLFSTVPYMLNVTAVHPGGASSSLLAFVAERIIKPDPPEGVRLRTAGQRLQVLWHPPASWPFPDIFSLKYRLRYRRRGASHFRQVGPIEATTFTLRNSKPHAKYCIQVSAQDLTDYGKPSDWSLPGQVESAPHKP
# Target: T1, mouse Ebi3 subunit of recombinant …
# Test: co-IP
binder,measurement,value
"mouse IL-12p35 (p35) subunit of recombinant IL-35, Flag-tagged (natural protein) RVIPVSGPARCLSQSRNLLKTTDDMVKTAREKLKHYSCTAEDIDHEDITRDQTSTLKTCLPLELHKNESCLATRETSSTTRGSCLPPQKTSLMMTLCLGSIYEDLKMYQTEFQAINAALQNHNHQQIILDKGMLVAIDELMQSLNHNGETLRQKPPVGEADPYRVKMKLCILLHAFSTRVVTINRVMGYLSSA",binding result,binds

# Reference: paper PMC4048323 (Nature medicine, 2014)
